# Measurements taken from the RNAGym collection of RNA variant scans (doi:10.7554/elife.80360).
# B1: Hammerhead Ribozyme (parent)
# chain: ACCGGAUGUGCUUUCCGGUCUGAUGAGUCCGUGAGGACGAAACAG
# Variants of: B1
# Experiment: self-cleavage, relative activity (ratio to wild type); higher = more cleavage; co-transcriptional
row,Variant,self-cleavage
1,ACCGGUUUUGCUUUCCGGUCUGAUGAGUCCGUGAGGACGAAACAG,0.489
2,CCCGAAUGUGCUUUCCGGUCUGAUGAGUCCGUGAGGACGAAACAG,0.483
3,ACCGGAUGUGUUUUCCGGUCCGAUGAGUCCGUGAGGACGAAACAG,0.561
4,ACCGGAUGUGCUUUCCGGUGUGAUGAGUCCGUGAGGACGAACCAG,0.307
5,AACGGAUGUGUUUUCCGGUCUGAUGAGUCCGUGAGGACGAAACAG,0.431
6,ACCGGAAGUGCUUUCCGGUCUGAUGAGUCCGUGACGACGAAACAG,0.707
7,ACCGGAUGUGCUUUCCUGUCUGAGGAGUCCGUGAGGACGAAACAG,0.704
8,UCCGGAUGUGCUUUCCGGUCUGAUGAGUCCGUGCGGACGAAACAG,0.492
9,ACCGGAUUUGCUUUCCGGUCUGAUGAGUACGUGAGGACGAAACAG,0.488
10,ACCGGAUGUGCUUUCCGGUCUCAUGAGUCCGUGAGUACGAAACAG,0.322
11,ACCGGAUGUGCUUUCCGGGCUGAUGGGUCCGUGAGGACGAAACAG,0.319
12,ACCGGAUGUGUUUUCCGGUCUGAUGAGUCCGGGAGGACGAAACAG,0.799
13,ACCGGAUGUGCUUUCCUGCCUGAUGAGUCCGUGAGGACGAAACAG,0.397
14,ACCGGAUGUGCUUUCCGGUCUGAUGAGUCCGUGAGCACGAAACUG,0.296
15,ACCGGAUGUGCUUUCCGGUCUGGUGAGUCCGUAAGGACGAAACAG,0.465
16,ACCGGAAGUGCUUUGCGGUCUGAUGAGUCCGUGAGGACGAAACAG,0.987
17,ACCGGAUGUGCUGUCCGGUCUGUUGAGUCCGUGAGGACGAAACAG,0.405
18,ACCGGAUGUCCCUUCCGGUCUGAUGAGUCCGUGAGGACGAAACAG,1.26
19,ACCGGAUGUGCUUUCCGGUCCGAUGAGUCCGUGAGAACGAAACAG,0.718
20,ACCGGAUGUGCUUUCCGGGCUGAUGAAUCCGUGAGGACGAAACAG,0.301
21,ACCAGAUGUGCUUUCCGGUCUGAUGAGUCCGUGGGGACGAAACAG,0.378
22,ACCGGAUGUGCUUUCGGGUCUGAUGAGUCCGUGAGGACAAAACAG,0.254
23,ACCGGAAGUGCUUUCCGUUCUGAUGAGUCCGUGAGGACGAAACAG,0.569

row,Variant,self-cleavage
1,CCCGGAUGUGCUUUCCGGUCUGAUGAGUCCGUGAGGACGAAAGAG,0.285
2,ACCGGAUGUGAUUUCCGGUCUGAUGAGUACGUGAGGACGAAACAG,0.783
3,ACCGGAUGUGCUUUCCGGUCUGACGAGUACGUGAGGACGAAACAG,0.416
4,ACCGGACGUGCUUUCCGGUCUGAGGAGUCCGUGAGGACGAAACAG,0.742
5,ACCGGAUGUGGUUUCCGGUCUGAUGAGUCCGUGAGGACGAAACAA,0.626
6,ACCGGAUGUGCUUUUCGGCCUGAUGAGUCCGUGAGGACGAAACAG,0.581
7,GCCGGAUGUGCUUUCCGGUCUGAUGAGUCCGUGAGGACGAAACAC,1.01
8,ACCGGAUUUGCUUUCCGGUCUGAUGAGUCCGUGUGGACGAAACAG,0.792
9,ACCGGAUGUGCUUUCCGGUCUGAUGAGUCCGUGACGACGAAACAU,0.498
10,ACCGGAUCUGCUUUCCGAUCUGAUGAGUCCGUGAGGACGAAACAG,0.509
11,ACCGGAUUUGCUAUCCGGUCUGAUGAGUCCGUGAGGACGAAACAG,1.1
12,ACCGGCUGUGCUUGCCGGUCUGAUGAGUCCGUGAGGACGAAACAG,0.508
13,ACCGGAUGUGCUUUCCGAUCUGAUGCGUCCGUGAGGACGAAACAG,0.366
14,ACCGGAUGUGCUUUCCGGUCUGAUGAGUCCGGGAGGACGAAGCAG,0.357
15,ACCGGAUGUGCUUUCCGUUCUGAUGAGUCCGUGAGGUCGAAACAG,0.494
16,ACCGGAGGUGCUUUGCGGUCUGAUGAGUCCGUGAGGACGAAACAG,0.699
17,ACCGGAUUUGCUUUCCGGUCUUAUGAGUCCGUGAGGACGAAACAG,0.348
18,ACCGGAUGUGCUUUCCGGUCUGAUGAGUCCGUGAGGACAAAAAAG,0.284
19,ACCGGAUGUGCUUUCGGGUCUGAUGAGUCCGUGAGGACGAAACUG,0.335
20,ACUGGAUGUGCUUUCCGGUCUGAUGAGUCAGUGAGGACGAAACAG,1.05
21,ACCGGAUGUGCUUUCCGGUCUGAUGAGUCCGGCAGGACGAAACAG,0.966
22,ACCCGAUGUGCUUGCCGGUCUGAUGAGUCCGUGAGGACGAAACAG,0.733
23,ACCGGAUGUCCUUUCCGGUCUGAUGAGUCCGUGACGACGAAACAG,0.497

row,Variant,self-cleavage
1,ACCGGAUGUGCUUUCCGGUCUGAUAAGACCGUGAGGACGAAACAG,0.342
2,ACCGGAUGUGCUGUCCGGUCUGAUGAGUCCGUGAGCACGAAACAG,0.709
3,ACCGGAUGUGCUUUCCGGUCUGUUGAGUCCGUGAGGACGAAACAU,0.461
4,ACCGGAUGUGCUUUCCGGUCAGAUAAGUCCGUGAGGACGAAACAG,0.334
5,AUCGGAUGUGCUUUCCCGUCUGAUGAGUCCGUGAGGACGAAACAG,0.375
6,AGCGGAUGUGCUUUCCGGUCUGAUGAGUCCGUGAGGACGAAAGAG,0.308
7,ACCGGAUGUGCUUUCCGAUCUGAUGAGUCCGUGAGGACGAAAGAG,0.28
8,ACCGGAUGUGCUUUCCGGUCUGAUGAAUCCGUGAGGACGAAACUG,0.53
9,ACCGGAUGUGCUUUCUGGUCUGAUGAGUCCGUAAGGACGAAACAG,1.14
10,ACCGGGUGUGCUUUCCGGUCUGAUGAGUCCGUGAGGACGAAAGAG,0.284
11,ACCGGAUGUCCUCUCCGGUCUGAUGAGUCCGUGAGGACGAAACAG,1.03
12,ACCGGAUGUGCUUUCCGGUCUGCUGAGUCCGUGAGGACAAAACAG,0.298
13,ACCGGAUGUGCUUUCCGGUCUGAUGAGUCCCUGAGGACAAAACAG,0.355
14,ACCGGAUGUGCUUUCCGGUCUGAUGAGGCCGUGAGGACGGAACAG,0.261
15,ACCGGAUGUGCUUUCCGGUCUGACGGGUCCGUGAGGACGAAACAG,0.401
16,ACCGGAUGUGCUGUCCGGUCUGAUGAGUUCGUGAGGACGAAACAG,0.82
17,ACCGGAUAUCCUUUCCGGUCUGAUGAGUCCGUGAGGACGAAACAG,1.46
18,ACCGGAUGUGCUUUCCGGUCUGAUGAGUCCGAGAGGACGAAAAAG,0.347
19,ACCGGAUGUGCUUUCCGGUCUGAUGAUUCCGUGAUGACGAAACAG,0.345
20,ACCGGAUGUGCUUUCCGGUAUGAUUAGUCCGUGAGGACGAAACAG,0.619
21,ACCGGAUGUGCUUUCCGGUCUGAUGAGUACGUGAGGACGAAAAAG,0.345
22,ACCGCAUGUGCUUUCCGGUCUGAUGAGUCCGUCAGGACGAAACAG,0.58
23,ACCGGAUCUGCUUUCCGGUCUGUUGAGUCCGUGAGGACGAAACAG,0.328

row,Variant,self-cleavage
1,ACCGGCUGAGCUUUCCGGUCUGAUGAGUCCGUGAGGACGAAACAG,0.479
2,ACCGGAUGUGCUUUCCGGUCUGAAGAGUUCGUGAGGACGAAACAG,0.883
3,ACUGGAUGUGCUUUCCGGUCUGAUGAGUCCGUGAGGACGCAACAG,0.469
4,ACCGGGUGUGCUUUCCGGUCUGAUGAGUGCGUGAGGACGAAACAG,0.498
5,ACCGGAUGUGCUUUCCGGCCUGAUGAGCCCGUGAGGACGAAACAG,0.572
6,ACCGGAGGUGCUUUCCUGUCUGAUGAGUCCGUGAGGACGAAACAG,0.548
7,ACCGAAUGUGCUUUCCGGUCUGAUGAGUCCGUGAGGACGAAACAU,0.587
8,GCCGGAUGUGCUUUCCGGUCUGAUGUGUCCGUGAGGACGAAACAG,0.971
9,ACCGGAUGUGCUUUCCGGUCUGAUGAGUCCGUGACGACGAAAGAG,0.325
10,ACCGGAUGUGCUUUCCGGGCUGAUGAGUCCGUGACGACGAAACAG,0.308
11,ACCGGAUGUGCUUUCCGGUCUGAUGAGUCCGUGCGGACGAAACGG,0.727
12,ACCGGAUGUGCUUUCCGGUCUGAUGAGCCCGUGAGUACGAAACAG,0.591
13,AACGGAUGUGCUUGCCGGUCUGAUGAGUCCGUGAGGACGAAACAG,0.697
14,ACCGGAUGGGCUUUCCGAUCUGAUGAGUCCGUGAGGACGAAACAG,0.393
15,ACCGGAUGUGCUAUCCGGUCUGGUGAGUCCGUGAGGACGAAACAG,0.441
16,ACCGGAUGUGCCUUCCGGUCUGAUGAGUCCGUGCGGACGAAACAG,0.877
17,ACCGUAUGUGCUUUCCGGUCUGAUGAGUCCGUGAGGACGAAACAC,0.443
18,ACCGGAUGUGCUUUCCGGUCUGAUCAGUCCGUGAGGACUAAACAG,0.33
19,ACCGGAUGUGCUUUCCGGUCUGAUGAGGCCGUGUGGACGAAACAG,0.475
20,ACCGGAUGUGCUUUCCCGUCUGAUGAGUCCGUGAGGACGAAAGAG,0.311
21,ACCGGGUGUGCUUUCCGGUCUGAUGAGUCCGUGACGACGAAACAG,0.684
22,ACCGGAUGUGCUUACCGGCCUGAUGAGUCCGUGAGGACGAAACAG,0.474
23,ACCGGAUGUGCUUUUCGGUCUGAUGAGUCCGUCAGGACGAAACAG,0.847

row,Variant,self-cleavage
1,ACCUGGUGUGCUUUCCGGUCUGAUGAGUCCGUGAGGACGAAACAG,0.327
2,ACCUGAUGUGCUUUCCGGUCUGAUGAGUCCAUGAGGACGAAACAG,0.612
3,ACCGGAUGUGCUCUCCGGUCUGAUGAGUCCGUGAGGACAAAACAG,0.293
4,GCCGGAUGUGCUUUCCAGUCUGAUGAGUCCGUGAGGACGAAACAG,0.896
5,ACCGGAUGUGCUUUCCGGUCUGAUGAGUCAGUGCGGACGAAACAG,0.798
6,ACCGGAUGUGCUUUCCGGUCUGAUUAGUCCGUGAGGACAAAACAG,0.318
7,ACCGGCUGUGCUUUCCGGUCUGAUGAGUCCGUUAGGACGAAACAG,0.579
8,ACCGGAUGUGCUUUCCGGACUGAUGAGUCCGUGAGGCCGAAACAG,0.43
9,ACCGGAUGUCCUUUCCGGUCUGAUGAGUUCGUGAGGACGAAACAG,1.44
10,ACCGGAUGUGCUUUCCGGACUGAUCAGUCCGUGAGGACGAAACAG,0.296
11,ACCGGAUGUGCUUUCCGAUCUGAUGAGUCCGUGAGGAUGAAACAG,0.531
12,ACCGGAUGUGUUUUUCGGUCUGAUGAGUCCGUGAGGACGAAACAG,1.18
13,ACAGGAUCUGCUUUCCGGUCUGAUGAGUCCGUGAGGACGAAACAG,0.467
14,ACAGGAUAUGCUUUCCGGUCUGAUGAGUCCGUGAGGACGAAACAG,0.629
15,ACCGGAUGUGCUUUCCGGUCUGAUGAGUCCGUGAGCACGAAACAG,0.52
16,ACCGGAUGUGCUUUCCGGCCUGAUGCGUCCGUGAGGACGAAACAG,0.367
17,ACCGGAUGAGCUUUCCGGUCUGAUGAGUCCGUGAGGACGCAACAG,0.49
18,ACCGGAUGUGCUUUCCGCUCUGAUGAGUCCGUGAGGACGAAACUG,0.354
19,ACGGGAUGUGCUUUCCGGUCUGAUGAGUCCGUGAGAACGAAACAG,0.271
20,CCCGGAUGUGCUUUCCGGUCUGAUGACUCCGUGAGGACGAAACAG,0.357
21,ACCGGAUGUGCUUUCCGGUCUGUUGAGUGCGUGAGGACGAAACAG,0.345
22,ACUGGAUGUGCUUUCCGGUCGGAUGAGUCCGUGAGGACGAAACAG,0.558
